Our source for the K0.5, kcat and kcat/Km values is PMC4496674, “Tackling Critical Catalytic Residues in Helicobacter pylori L-Asparaginase” (Biomolecules, 2015).

The term kcat denotes the maximal rate divided by the concentration of active sites. What is called kcat/Km is the turnover number divided by the Michaelis constant.

Substrate in series [1]: NC(=O)CC[C@H](N)C(=O)O
As to the kind of experiment: purified protein. As to conditions: 50 mM HEPES pH 7.5, 37 °C, sigmoidal, cooperative.

Substrate in series [2]: NC(=O)C[C@H](N)C(=O)O
As to the kind of experiment: purified protein. The note with it: 50 mM HEPES pH 7.5, 37 °C, hyperbolic.

B1: HpASNase (Helicobacter pylori 26695) (protein)
chain: MAQNLPTIALLATGGTIAGSGASASLGSYKSGELGIKELLKAIPSLNRLARIQGEQISNIGSQDMNEEVWFKLAKRAQELLDDSRIQGVVITHGTDTLEESAYFLNLVLRSTKPVVLVGAMRNAASLSADGALNLYNAVSVALNEKSANKGVLVVMDDNIFSAREVIKTHTTHTSTFKALNSGAIGSVYYGKTRYYMQPLRKHTTESEFSLSQLKTPLPKVDIIYTHAGMTPDLFQASLNSHAKGVVIAGVGNGNVSAGFLKAMQEASQMGVVIVRSSRVNSGEITSGEIDDKAFITSDNLNPQKARVLLQLALTKTNNKEKIQEMFEEY
As for B1, in the series “purified protein [1]”, the K0.5 is recorded as 46.4 ± 4.02 mM, the kcat is 22.1 ± 1.39 s⁻¹ and the kcat/Km is 470 ± 100 M⁻¹ s⁻¹. Besides, in the series “purified protein [2]”, the K0.5 was 0.29 ± 0.03 mM, the turnover number (kcat) was found to be 19.3 ± 0.56 s⁻¹ and the kcat/Km stood at 66400 M⁻¹ s⁻¹.
